Our source for the Km, Vmax and kcat values is PMC7844235, “Redirecting substrate regioselectivity using engineered ΔN123-GBD-CD2 branching sucrases for the production of pentasaccharide repeating units of S. flexneri 3a, 4a and 4b haptens” (Scientific Reports, 2021).

The labels stand for the following.
B1: ΔN123-GBD-CD2 branching sucrase (Leuconostoc mesenteroides) (protein)
chain: QAGHYITKNGNDWQYDTNGELAKGLRQDSNGKLRYFDLTTGIQAKGQFVTIGQETYYFSKDHGDAQLLPMVTEGHYGTITLKQGQDTKTAWVYRDQNNTILKGLQNINGTLQFFDPYTGEQLKGGVAKYDDKLFYFESGKGNLVSTVAGDYQDGHYISQDGQTRYADKQNQLVKGLVTVNGALQYFDNATGNQIKNQQVIVDGKTYYFDDKGNGEYLFTNTLDMSTNAFSTKNVAFNHDSSSFDHTVDGFLTADTWYRPKSILANGTTWRDSTDKDMRPLITVWWPNKNVQVNYLNFMKANGLLTTAAQYTLHSDQYDLNQAAQDVQVAIERRIASEHGTDWLQKLLFESQNNNPSFVKQQFIWNKDSEYHGGGDAWFQGGYLKYGNNPLTPTTNSDYRQPGNAFDFLLANDVDNSNPVVQAENLNWLHYLMNFGTITAGQDDANFDSIRIDAVDFIHNDTIQRTYDYLRDAYQVQQSEAKANQHISLVEAGLDAGTSTIHNDALIESNLREAATLSLTNEPGKNKPLTNMLQDVDGGTLITDHTQNSTENQATPNYSIIHAHDKGVQEKVGAAITDATGADWTNFTDEQLKAGLELFYKDQRATNKKYNSYNIPSIYALMLTNKDTVPRMYYGDMYQDDGQYMANKSIYYDALVSLMTARKSYVSGGQTMSVDNHGLLKSVRFGKDAMTANDLGTSATRTEGLGVIIGNDPKLQLNDSDKVTLDMGAAHKNQKYRAVILTTRDGLATFNSDQAPTAWTNDQGTLTFSNQEINGQDNTQIRGVANPQVSGYLAVWVPVGASDNQDARTAATTTENHDGKVLHSNAALDSNLIYEGFSNFQPKATTHDELTNVVIAKNADVFNNWGITSFEMAPQYRSSGDHTFLDSTIDNGYAFTDRYDLGFNTPTKYGTDGDLRATIQALHHANMQVMADVVDNQVYNLPGKEVVSATRAGVYGNDDATGFGTQLYVTNSVGGGQYQEKYAGQYLEALKAKYPDLFEGKAYDYWYKNYANDGSNPYYTLSHGDRESIPADVAIKQWSAKYMNGTNVLGNGMGYVLKDWHNGQYFKLDGDKSTLPQI
B2: ΔN123-GBD-CD2 branching sucrase (Leuconostoc mesenteroides; F2136L/W2135S) (protein)
chain: QAGHYITKNGNDWQYDTNGELAKGLRQDSNGKLRYFDLTTGIQAKGQFVTIGQETYYFSKDHGDAQLLPMVTEGHYGTITLKQGQDTKTAWVYRDQNNTILKGLQNINGTLQFFDPYTGEQLKGGVAKYDDKLFYFESGKGNLVSTVAGDYQDGHYISQDGQTRYADKQNQLVKGLVTVNGALQYFDNATGNQIKNQQVIVDGKTYYFDDKGNGEYLFTNTLDMSTNAFSTKNVAFNHDSSSFDHTVDGFLTADTWYRPKSILANGTTWRDSTDKDMRPLITVWWPNKNVQVNYLNFMKANGLLTTAAQYTLHSDQYDLNQAAQDVQVAIERRIASEHGTDWLQKLLFESQNNNPSFVKQQFIWNKDSEYHGGGDASLQGGYLKYGNNPLTPTTNSDYRQPGNAFDFLLANDVDNSNPVVQAENLNWLHYLMNFGTITAGQDDANFDSIRIDAVDFIHNDTIQRTYDYLRDAYQVQQSEAKANQHISLVEAGLDAGTSTIHNDALIESNLREAATLSLTNEPGKNKPLTNMLQDVDGGTLITDHTQNSTENQATPNYSIIHAHDKGVQEKVGAAITDATGADWTNFTDEQLKAGLELFYKDQRATNKKYNSYNIPSIYALMLTNKDTVPRMYYGDMYQDDGQYMANKSIYYDALVSLMTARKSYVSGGQTMSVDNHGLLKSVRFGKDAMTANDLGTSATRTEGLGVIIGNDPKLQLNDSDKVTLDMGAAHKNQKYRAVILTTRDGLATFNSDQAPTAWTNDQGTLTFSNQEINGQDNTQIRGVANPQVSGYLAVWVPVGASDNQDARTAATTTENHDGKVLHSNAALDSNLIYEGFSNFQPKATTHDELTNVVIAKNADVFNNWGITSFEMAPQYRSSGDHTFLDSTIDNGYAFTDRYDLGFNTPTKYGTDGDLRATIQALHHANMQVMADVVDNQVYNLPGKEVVSATRAGVYGNDDATGFGTQLYVTNSVGGGQYQEKYAGQYLEALKAKYPDLFEGKAYDYWYKNYANDGSNPYYTLSHGDRESIPADVAIKQWSAKYMNGTNVLGNGMGYVLKDWHNGQYFKLDGDKSTLPQI
B3: ΔN123-GBD-CD2 branching sucrase (Leuconostoc mesenteroides; F2163G) (protein)
chain: QAGHYITKNGNDWQYDTNGELAKGLRQDSNGKLRYFDLTTGIQAKGQFVTIGQETYYFSKDHGDAQLLPMVTEGHYGTITLKQGQDTKTAWVYRDQNNTILKGLQNINGTLQFFDPYTGEQLKGGVAKYDDKLFYFESGKGNLVSTVAGDYQDGHYISQDGQTRYADKQNQLVKGLVTVNGALQYFDNATGNQIKNQQVIVDGKTYYFDDKGNGEYLFTNTLDMSTNAFSTKNVAFNHDSSSFDHTVDGFLTADTWYRPKSILANGTTWRDSTDKDMRPLITVWWPNKNVQVNYLNFMKANGLLTTAAQYTLHSDQYDLNQAAQDVQVAIERRIASEHGTDWLQKLLFESQNNNPSFVKQQFIWNKDSEYHGGGDAWFQGGYLKYGNNPLTPTTNSDYRQPGNAGDFLLANDVDNSNPVVQAENLNWLHYLMNFGTITAGQDDANFDSIRIDAVDFIHNDTIQRTYDYLRDAYQVQQSEAKANQHISLVEAGLDAGTSTIHNDALIESNLREAATLSLTNEPGKNKPLTNMLQDVDGGTLITDHTQNSTENQATPNYSIIHAHDKGVQEKVGAAITDATGADWTNFTDEQLKAGLELFYKDQRATNKKYNSYNIPSIYALMLTNKDTVPRMYYGDMYQDDGQYMANKSIYYDALVSLMTARKSYVSGGQTMSVDNHGLLKSVRFGKDAMTANDLGTSATRTEGLGVIIGNDPKLQLNDSDKVTLDMGAAHKNQKYRAVILTTRDGLATFNSDQAPTAWTNDQGTLTFSNQEINGQDNTQIRGVANPQVSGYLAVWVPVGASDNQDARTAATTTENHDGKVLHSNAALDSNLIYEGFSNFQPKATTHDELTNVVIAKNADVFNNWGITSFEMAPQYRSSGDHTFLDSTIDNGYAFTDRYDLGFNTPTKYGTDGDLRATIQALHHANMQVMADVVDNQVYNLPGKEVVSATRAGVYGNDDATGFGTQLYVTNSVGGGQYQEKYAGQYLEALKAKYPDLFEGKAYDYWYKNYANDGSNPYYTLSHGDRESIPADVAIKQWSAKYMNGTNVLGNGMGYVLKDWHNGQYFKLDGDKSTLPQI

Usually Km stands for the substrate concentration at which the rate is half of its maximum. As usually defined, the Vmax is the rate approached at saturating substrate. Usually kcat stands for the maximal rate divided by the concentration of active sites.

Substrate in the series: OC[C@H]1O[C@@](CO)(O[C@H]2O[C@H](CO)[C@@H](O)[C@H](O)[C@H]2O)[C@@H](O)[C@@H]1O
The series is described as follows: sucrose hydrolysis, HPLC-CAD, Michaelis-Menten fit. Particulars: sucrose as sole substrate, 50 mM sodium acetate pH 5.1, 30 °C. The class given is biochemical, Leuconostoc mesenteroides. An excerpt: sucrose hydrolysis, HPLC-CAD, Michaelis-Menten fit on ΔN123-GBD-CD2 branching sucrase
With B1, the Km is 30.5 ± 7.2 mM, the Vmax is 77.5 µmol/min/mg and the kcat amounted to 162 ± 12.7 s⁻¹.
The matching figures for B2: 8.8 ± 1.0 mM, 17.7 µmol/min/mg and 36.9 ± 0.9 s⁻¹.
Regarding B3, the Km came to 7.0 ± 1.2 mM, the Vmax was found to be 16.8 µmol/min/mg and the kcat amounted to 35.1 ± 0.9 s⁻¹.
